Key:
Assay in all cases: cell-based or functional assay
[1] = target: TGFβ1 (R&D systems) (UniProt P01137)
[2] = target: IL-2Rα, IL-2Rβ and common γ chain on CTLL-2 cells
[3] = target: IL-2Rβ and common γ chain on 32Dβ cells

Chain of UniProt P01137 (P01137 279-390 limits assumed): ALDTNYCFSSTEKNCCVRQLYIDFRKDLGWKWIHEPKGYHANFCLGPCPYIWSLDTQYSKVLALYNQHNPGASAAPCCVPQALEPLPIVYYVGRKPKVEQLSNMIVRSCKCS

| Substance | IC50 of inhibition of TGFβ1 activity in HEK-Blue TGFβ reporter cells (QUANTI-Blue OD at 620-655 nM) [1] [pM] | EC50 of CTLL-2 cell proliferation (WST1, absorbance at 450 nM) [2] [pM] | EC50 of 32Dβ cell proliferation (WST1, absorbance at 450 nM) [3] [pM] |
| --- | --- | --- | --- |
| TGFR-Fc (R&D Systems) (Fc fusion) | 461 | – | – |
| recombinant IL2 (Proleukin) (from UniProt P60568 22-153) (ligand) | – | 253 | 65.5 |
| recombinant IL-2 (from UniProt P60568 21-153) (ligand) | – | 548 | 140 |
| recombinant IL-15 (from UniProt P40933 49-162) (ligand) | – | – | 10.6 |

Source: US20250066500A1
